According to patent US20090061443:

Target: T1, Flag-CALM-AF10 fusion protein (wild-type), Q13492
T1 chain: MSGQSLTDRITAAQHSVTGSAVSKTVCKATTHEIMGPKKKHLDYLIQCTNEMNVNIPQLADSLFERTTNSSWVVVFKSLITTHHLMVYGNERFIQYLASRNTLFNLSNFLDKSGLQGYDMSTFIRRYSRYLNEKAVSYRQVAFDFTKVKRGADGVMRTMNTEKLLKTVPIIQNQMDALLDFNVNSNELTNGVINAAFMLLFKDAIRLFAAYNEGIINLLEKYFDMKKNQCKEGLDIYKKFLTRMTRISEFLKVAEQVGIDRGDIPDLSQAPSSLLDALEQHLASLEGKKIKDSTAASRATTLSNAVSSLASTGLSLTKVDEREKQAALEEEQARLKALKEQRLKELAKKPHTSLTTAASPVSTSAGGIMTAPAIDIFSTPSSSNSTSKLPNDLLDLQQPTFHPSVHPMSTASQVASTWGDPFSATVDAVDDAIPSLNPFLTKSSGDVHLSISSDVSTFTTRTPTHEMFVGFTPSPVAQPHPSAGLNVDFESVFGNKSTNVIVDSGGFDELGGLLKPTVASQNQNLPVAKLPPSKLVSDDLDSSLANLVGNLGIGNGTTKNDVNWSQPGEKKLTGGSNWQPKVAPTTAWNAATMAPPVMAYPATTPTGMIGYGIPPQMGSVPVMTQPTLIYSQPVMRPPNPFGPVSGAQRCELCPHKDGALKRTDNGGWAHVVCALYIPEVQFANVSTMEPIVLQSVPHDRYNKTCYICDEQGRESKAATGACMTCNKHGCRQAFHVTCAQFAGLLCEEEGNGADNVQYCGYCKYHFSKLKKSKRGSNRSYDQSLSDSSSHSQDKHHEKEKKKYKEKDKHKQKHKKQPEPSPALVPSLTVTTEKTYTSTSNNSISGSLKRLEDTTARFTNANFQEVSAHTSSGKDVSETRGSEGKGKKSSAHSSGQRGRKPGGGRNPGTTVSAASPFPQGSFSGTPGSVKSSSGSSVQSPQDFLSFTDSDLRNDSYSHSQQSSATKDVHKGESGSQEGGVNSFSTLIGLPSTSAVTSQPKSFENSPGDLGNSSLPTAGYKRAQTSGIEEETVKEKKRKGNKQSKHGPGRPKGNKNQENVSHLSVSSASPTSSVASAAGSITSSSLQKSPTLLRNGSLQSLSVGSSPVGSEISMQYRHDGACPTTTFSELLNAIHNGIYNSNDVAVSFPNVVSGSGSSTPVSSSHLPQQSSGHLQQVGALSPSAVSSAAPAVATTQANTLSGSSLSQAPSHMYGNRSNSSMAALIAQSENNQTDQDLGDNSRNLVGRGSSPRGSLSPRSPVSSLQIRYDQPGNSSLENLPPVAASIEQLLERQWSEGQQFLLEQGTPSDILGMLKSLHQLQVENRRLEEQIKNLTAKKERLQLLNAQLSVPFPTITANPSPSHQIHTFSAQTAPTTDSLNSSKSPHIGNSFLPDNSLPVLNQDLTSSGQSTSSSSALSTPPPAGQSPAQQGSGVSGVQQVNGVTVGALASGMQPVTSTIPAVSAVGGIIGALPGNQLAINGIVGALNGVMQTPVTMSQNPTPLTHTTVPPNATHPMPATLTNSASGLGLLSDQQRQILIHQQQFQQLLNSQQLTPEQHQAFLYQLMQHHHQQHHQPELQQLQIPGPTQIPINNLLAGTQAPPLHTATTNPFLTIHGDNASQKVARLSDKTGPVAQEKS

B1: hDOT1L (human DOT1-like protein) (protein)
chain: MGEKLELRLKSPVGAEPAVYPWPLPVYDKHHDAAHEIIETIRWVCEEIPDLKLAMENYVLIDYDTKSFESMQRLCDKYNRAIDSIHQLWKGTTQPMKLNTRPSTGLLRHILQQVYNHSVTDPEKLNNYEPFSPEVYGETSFDLVAQMIDEIKMTDDDLFVDLGSGVGQVVLQVAAATNCKHHYGVEKADIPAKYAETMDREFRKWMKWYGKKHAEYTLERGDFLSEEWRERIANTSVIFVNNFAFGPEVDHQLKERFANMKEGGRIVSSKPFAPLNFRINSRNLSDIGTIMRVVELSPLKGSVSWTGKPVSYYLHTIDRTILENYFSSLKNPKLREEQEAARRRQQRESKSNAATPTKGPEGKVAGPADAPMDSGAEEEKAGAATVKKPSPSKARKKKLNKKGRKMAGRKRGRPKKMNTANPERKPKKNQTALDALHAQTVSQTAASSPQDAYRSPHSPFYQLPPSVQRHSPNPLLVAPTPPALQKLLESFKIQYLQFLAYTKTPQYKASLQELLGQEKEKNAQLLGAAQQLLSHCQAQKEEIRRLFQQKLDELGVKALTYNDLIQAQKEISAHNQQLREQSEQLEQDNRALRGQSLQLLKARCEELQLDWATLSLEKLLKEKQALKSQISEKQRHCLELQISIVELEKSQRQQELLQLKSCVPPDDALSLHLRGKGALGRELEPDASRLHLELDCTKFSLPHLSSMSPELSMNGQAAGYELCGVLSRPSSKQNTPQYLASPLDQEVVPCTPSHVGRPRLEKLSGLAAPDYTRLSPAKIVLRRHLSQDHTVPGRPAASELHSRAEHTKENGLPYQSPSVPGSMKLSPQDPRPLSPGALQLAGEKSSEKGLRERAYGSSGELITSLPISIPLSTVQPNKLPVSIPLASVVLPSRAERARSTPSPVLQPRDPSSTLEKQIGANAHGAGSRSLALAPAGFSYAGSVAISGALAGSPASLTPGAEPATLDESSSSGSLFATVGSRSSTPQHPLLLAQPRNSLPASPAHQLSSSPRLGGAAQGPLPEASKGDLPSDSGFSDPESEAKRRIVFTITTGAGSAKQSPSSKHSPLTASARGDCVPSHGQDSRRRGRRKRASAGTPSLSAGVSPKRRALPSVAGLFTQPSGSPLNLNSMVSNINQPLEITAISSPETSLKSSPVPYQDHDQPPVLKKERPLSQTNGAHYSPLTSDEEPGSEDEPSSARIERKIATISLESKSPPKTLENGGGLAGRKPAPAGEPVNSSKWKSTFSPISDIGLAKSADSPLQASSALSQNSLFTFRPALEEPSADAKLAAHPRKGFPGSLSGADGLSPGTNPANGCTFGGGLAADLSLHSFSDGASLPHKGPEAAGLSSPLSFPSQRGKEGSDANPFLSKRQLDGLAGLKGEGSRGKEAGEGGLPLCGPTDKTPLLSGKAAKARDREVDLKNGHNLFISAAAVPPGSLLSGPGLAPAASSAGGAASSAQTHRSFLGPFPPGPQFALGPMSLQANLGSVAGSSVLQSLFSSVPAAAGLVHVSSAATRLTNSHAMGSFSGVAGGTVGGN
confocal microscopy of co-expressed hDOT1L and CALM-AF10: High resolution analysis of the proteins indicates that they colocalize in the nucleus
